The results in this text go back to article PMC11488288.

A short description of data set [1]: actinomycin D chase, RT-qPCR. Conditions: glycan lost; control: shYTHDF2 + Flag-YTHDF2 WT. A general note: Quantitative PCR measures a nucleic acid by following its amplification.
A short description of data set [2]: HA-Ub, MG132, IP and immunoblot, NP cells. In general terms: Immunoblotting shows a protein as a band on a membrane.
The nature of data set [3]: cycloheximide chase, immunoblot, NP cells.
Data set [4] in a line: in vitro ubiquitination with His-OGT and UDP-GlcNAc. Conditions: glycan lost; control: purified Flag-YTHDF2 WT.
The nature of data set [5]: nuclear/cytoplasmic fractionation and immunofluorescence.
Data set [6] can be described thus: immunoblot, with or without MG132, CQ, BafA1. Conditions: glycan lost; control: untreated.
Data set [7] in a line: IHC and Western blot of disc tissue. The conditions noted are these: glycan gained; control: IDD mice given saline.
Data set [8] can be described thus: immunoblot of endogenous YTHDF2, NP cells. The conditions noted are these: glycan gained; control: H2O2 alone.
[9] abbreviates: glycan lost, control: Flag-YTHDF2 WT.
[10] abbreviates: glycan gained, control: untreated Flag-YTHDF2 WT.

B1: YTHDF2: S263A (protein)
parent chain: MSASSLLEQRPKGQGNKVQNGSVHQKDGLNDDDFEPYLSPQARPNNAYTAMSDSYLPSYYSPSIGFSYSLGEAAWSTGGDTAMPYLTSYGQLSNGEPHFLPDAMFGQPGALGSTPFLGQHGFNFFPSGIDFSAWGNNSSQGQSTQSSGYSSNYAYAPSSLGGAMIDGQSAFANETLNKAPGMNTIDQGMAALKLGSTEVASSVPKVVGSAVGSGSITSNIVASSSLPPATIAPPKPASWADIASKPAKQQPKLKTKNGIAGSSLPPPPIKHNMDIGTWDNKGPVAKAPSQALVQNIGQPTQGSPQPVGQQANNSPPVAQASVGQQTQPLPPPPPQPAQLSVQQQAAQPTRWVAPRNRGSGFGHNGVDGNGVGQSQAGSGSTPSEPHPVLEKLRSINNYNPKDFDWNLKHGRVFIIKSYSEDDIHRSIKYNIWCSTEHGNKRLDAAYRSMNGKGPVYLLFSVNGSGHFCGVAEMKSAVDYNTCAGVWSQDKWKGRFDVRWIFVKDVPNSQLRHIRLENNENKPVTNSRDTQEVPLEKAKQVLKIIASYKHTTSIFDDFSHYEKRQEEEESVKKERQGRGK
For the protein B1, the “other: target mRNA stability” value in data set [1] is reported as “decreases”. Moreover, the “other: ubiquitination” value in data set [2] (setting [9]) and in data set [4] was “increases” throughout. Also, in data set [3] (setting [9]), the degradation_or_half_life entry is listed as “decreases”. In data set [5] (setting [9]), the localisation_or_trafficking entry is “no change”.

B2: YTHDF2: OSMI-1 (protein)
parent chain: B1 parent chain
Consider B2, for which the expression_or_secretion entry in data set [6] is recorded as “decreases”. The localisation_or_trafficking entry in data set [5] (glycan lost, control: untreated) is recorded as “no change”.

B3: YTHDF2: TMG (protein)
parent chain: B1 parent chain
Regarding B3, the expression_or_secretion result in data set [7] and in data set [8] was “increases” throughout. The “other: ubiquitination” value in data set [2] (setting [10]) was “changes”. In data set [3] (setting [10]), the degradation_or_half_life result is listed as “increases”. The localisation_or_trafficking result in data set [5] (glycan gained, control: untreated) was “no change”.
